In patent US20250002610A1 (Genmab, published 2025):

Experiments:
human DR4HsECD-FcHisCtag = biological target: T1, human DR4HsECD-FcHisCtag (human); assay: BLI (Octet), antigen captured on anti-Penta-HIS sensors, average of three experiments
T1 construct: also called recombinant human DR4
Procedure: Experiments were carried out while shaking at 1,000 RPM at 30° C. Amine Reactive 2nd Generation (AR2G) biosensors (Sartorius, Cat #18-5092) were activated by reaction with 20 mM EDC (N-(3-Dimethylaminopropyl)-N′-ethylcarbodiimide hydrochloride) (Sigma-Aldrich, Cat #03449) and 10 mM s-NHS (N-hydroxysulfosuccinimide sodium salt) (Sigma-Aldrich, Cat #56485) for 300 s. The activated AR2G sensors were loaded with 2.5 μg/mL His-tagged recombinant Human FAPα (Acro Biosystems, Cat #FAP-H5244-100ug) in 10 mM Sodium Acetate pH 5.0 (Sartorius, Cat #18-1069) or 2.5 μg/mL His-tagged recombinant Cynomolgus FAPα (Acro Biosystems, Cat #FAP-C52H3-100ug) in 10 mM Sodium Acetate pH 5.0 for 600 s and quenched with 1 M ethanolamine pH 8.5 (Sartorius Cat #18-1071) for 300 s. After a baseline measurement in Sample Diluent (1000 s; Sartorius, Cat #18-1104), the association (100 s) and dissociation (4,000 s) of functionally monovalent antibody was determined using a concentration range of 0.78-800 nM with two-fold dilution steps in Sample Diluent. The molecular mass of the antibodies used for the calculations was calculated from the sequences.
The binding affinity of BisG1-FAPα-FERL/DR4-FERR, BisG1-b12-FERL/DR4-FERR and control BisG1-FAPα-FERL/b12-FERR to recombinant human and cynomolgus monkey DR4 protein was determined using label-free biolayer interferometry on an Octet HTX instrument (Sartorius).
The protocol detailed in Example 5 was used with the following differences: anti-Penta-HIS biosensors (Sartorius, Cat #18-5120) were used; the sensors were preconditioned by exposure to 10 mM glycine (Sigma-Aldrich, Cat #15527) buffer pH 1.5 for 5 s, followed by neutralization in Sample Diluent (Sartorius, Cat #18-1104) for 5 s; both steps were repeated 2 times; the sensors were loaded with 50 nM human DR4HsECD-FcHisCtag (SEQ ID NO: 66), or cynomolgus DR4MfECD-FcHisCtag (SEQ ID NO: 67), for 600 s; the dissociation time was 1,000 s; The window of interest for the dissociation time was set at 100 s for the cynomolgus antigen and at 1,000 s for the human antigen.

[1] = biological target: human DR4 with death domain deletion on ExpiCHO-S cells (human); assay: flow cytometry, ExpiCHO-S cells expressing human DR4, average ± SEM
[2] = biological target: T2, human FAPα (Fibroblast activation protein alpha), cell surface expressed (human, UniProt Q12884 1-760); assay: flow cytometry, CAFs, n = 1
T2 construct: Endogenous on human lung fibroblasts and CAFs
T2 sequence: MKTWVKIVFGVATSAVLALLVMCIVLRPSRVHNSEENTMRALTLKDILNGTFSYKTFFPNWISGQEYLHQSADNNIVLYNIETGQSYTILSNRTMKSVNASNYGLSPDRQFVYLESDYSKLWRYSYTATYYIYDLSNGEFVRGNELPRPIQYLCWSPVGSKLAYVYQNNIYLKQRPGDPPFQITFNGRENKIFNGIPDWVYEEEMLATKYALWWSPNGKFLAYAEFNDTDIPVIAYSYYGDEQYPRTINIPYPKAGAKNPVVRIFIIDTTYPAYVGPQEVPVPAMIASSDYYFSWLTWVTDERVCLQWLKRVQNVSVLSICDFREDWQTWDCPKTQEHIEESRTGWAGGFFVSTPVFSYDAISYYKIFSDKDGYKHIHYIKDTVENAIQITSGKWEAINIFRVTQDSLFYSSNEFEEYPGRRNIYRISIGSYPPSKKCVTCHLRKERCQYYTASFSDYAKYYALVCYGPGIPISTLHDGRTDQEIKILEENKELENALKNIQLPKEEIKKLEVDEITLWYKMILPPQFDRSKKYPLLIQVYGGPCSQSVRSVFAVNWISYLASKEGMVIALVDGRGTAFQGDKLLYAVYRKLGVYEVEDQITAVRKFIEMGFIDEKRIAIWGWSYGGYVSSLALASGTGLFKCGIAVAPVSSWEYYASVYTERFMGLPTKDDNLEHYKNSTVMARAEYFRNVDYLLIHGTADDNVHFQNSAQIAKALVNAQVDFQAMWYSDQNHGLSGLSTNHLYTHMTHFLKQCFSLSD
Procedure: Binding of bispecific or monoclonal antibodies carrying the anti-FAPα arm derived from IgG1-FAPα-FERL (BisG1-FAPα-FERL/DR4-FERR, BisG1-FAPα-FERL/b12-FERR, and IgG1-FAPα-FERL) to cell surface expressed human FAPα was analyzed by flow cytometry using human lung fibroblasts and CAFs, which endogenously express FAPα. BisG1-b12-FERL/b12-FERR was used as negative control.
Human lung fibroblasts and CAFs (50,000 cells/well) were seeded in 96-Well round bottom plates (Greiner Bio-one, Cat #650101). Antibody dilutions were prepared using fluorescence-activated cell sorting (FACS) buffer, consisting of phosphate buffer saline (PBS, Lonza, Cat #BE17-517Q)+1% Bovine Serum Albumin (BSA, Roche, Cat #10735086001)+0.02% Sodium Azide (Bio-World, Cat #41920044-3). Plates were centrifuged, supernatant was removed, cells were resuspended in 50 μL of human Fc Block (BD, Cat #564220, diluted 1:100 in FACS buffer) and 50 μL of viability stain TO-PRO-3 Iodide (Thermo Fisher, Cat #T3605, diluted 1: 25,000 in FACS buffer), and incubated for 15 min at 4° C. Plates were washed three times with FACS buffer. […] Antibody binding to viable cells (TO-PRO-3 negative) was analyzed by flow cytometry on a FACSCelesta™ (BD biosciences) and data were processed using FlowJo_v10.8.1 (FlowJo LLC). Geomean fluorescence intensity, gMFI, was determined and visualized using GraphPad Prism.

T1 sequence (chain, as listed by the source limits assumed): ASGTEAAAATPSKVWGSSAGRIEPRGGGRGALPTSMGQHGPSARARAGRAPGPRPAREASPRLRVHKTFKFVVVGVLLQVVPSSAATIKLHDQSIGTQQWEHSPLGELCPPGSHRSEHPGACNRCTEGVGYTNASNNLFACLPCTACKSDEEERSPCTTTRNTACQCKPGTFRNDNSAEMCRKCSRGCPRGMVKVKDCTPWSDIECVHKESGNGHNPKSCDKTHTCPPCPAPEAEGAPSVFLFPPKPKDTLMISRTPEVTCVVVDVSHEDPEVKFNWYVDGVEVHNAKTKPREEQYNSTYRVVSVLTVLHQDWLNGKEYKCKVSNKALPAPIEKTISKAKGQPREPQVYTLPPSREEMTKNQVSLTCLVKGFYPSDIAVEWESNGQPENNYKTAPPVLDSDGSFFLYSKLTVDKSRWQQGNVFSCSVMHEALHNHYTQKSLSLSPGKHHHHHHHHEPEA
Chain of human DR4 with death domain deletion on ExpiCHO-S cells (human) (chain, as listed by the source limits assumed, stated change not applied): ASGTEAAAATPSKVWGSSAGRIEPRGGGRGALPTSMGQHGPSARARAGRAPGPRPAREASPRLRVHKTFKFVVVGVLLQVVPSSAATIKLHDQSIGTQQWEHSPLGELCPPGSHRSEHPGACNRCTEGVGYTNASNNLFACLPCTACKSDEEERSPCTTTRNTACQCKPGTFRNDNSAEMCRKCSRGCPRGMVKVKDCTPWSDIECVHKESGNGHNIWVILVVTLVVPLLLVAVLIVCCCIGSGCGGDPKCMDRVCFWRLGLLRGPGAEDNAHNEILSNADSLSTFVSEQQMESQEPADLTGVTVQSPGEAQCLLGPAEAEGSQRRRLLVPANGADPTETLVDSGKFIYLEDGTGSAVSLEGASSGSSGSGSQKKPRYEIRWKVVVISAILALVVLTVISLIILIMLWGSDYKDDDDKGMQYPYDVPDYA

B1: BisG1-FAPα-FERL/DR4-FERR (bispecific antibody, human IgG1, kappa, lambda)
heavy 1: EVQLLESGGGLVQPGGSPRLSCEASGFTFSSYALSWVRQAPGKGLEWVSAISGSGGGRYYADSVKGRFTISRDNSKNTLFLQMNSLRAEDTAVYYCAKEGYSSSGTYWDHWGQGTLVTVSSASTKGPSVFPLAPSSKSTSGGTAALGCLVKDYFPEPVTVSWNSGALTSGVHTFPAVLQSSGLYSLSSVVTVPSSSLGTQTYICNVNHKPSNTKVDKRVEPKSCDKTHTCPPCPAPEFERGPSVFLFPPKPKDTLMISRTPEVTCVVVDVSHEDPEVKFNWYVDGVEVHNAKTKPREEQYNSTYRVVSVLTVLHQDWLNGKEYKCKVSNKALPAPIEKTISKAKGQPREPQVYTLPPSREEMTKNQVSLTCLVKGFYPSDIAVEWESNGQPENNYKTTPPVLDSDGSFLLYSKLTVDKSRWQQGNVFSCSVMHEALHNHYTQKSLSLSPG
light 1: AIQMTQSPSSVSASVGDRVTITCRASQGVSSWLAWYQQKPGRAPKLLIYVASTLQSGVPSRFSGSGSGTDFTLTINSLQPEDFATYYCQQANSFPPTFGQGTRLEMKRTVAAPSVFIFPPSDEQLKSGTASVVCLLNNFYPREAKVQWKVDNALQSGNSQESVTEQDSKDSTYSLSSTLTLSKADYEKHKVYACEVTHQGLSSPVTKSFNRGEC
heavy 2: QVQLQESGPGLVKPSGTLSLTCAVSGGSISSYSWWSWIRQPPGKGLEWIGELYHSGSTNYNPSLKSRVTISVDKSKNQFSLKLRSVTAADTAVYYCVRGVATIDYWGQGTLVTVSSASTKGPSVFPLAPSSKSTSGGTAALGCLVKDYFPEPVTVSWNSGALTSGVHTFPAVLQSSGLYSLSSVVTVPSSSLGTQTYICNVNHKPSNTKVDKRVEPKSCDKTHTCPPCPAPEFERGPSVFLFPPKPKDTLMISRTPEVTCVVVDVSHEDPEVKFNWYVDGVEVHNAKTKPREEQYNSTYRVVSVLTVLHQDWLNGKEYKCKVSNKALPAPIEKTISKAKGQPREPQVYTLPPSREEMTKNQVSLTCLVKGFYPSDIAVEWESNGQPENNYKTTPPVLDSDGSFFLYSRLTVDKSRWQQGNVFSCSVMHEALHNHYTQKSLSLSPG
light 2: QSALTQPPSASGSPGQSVTISCTGTSSDVGGYNFVSWYQQDPGKAPKLLIYEVTKRPSGVPDRFSGSKSGNTASLTVSGLQAEDEADYYCSSYAGSNNVMFGGGTKLTVLGQPKAAPSVTLFPPSSEELQANKATLVCLISDFYPGAVTVAWKADSSPVKAGVETTTPSKQSNNKYAASSYLSLTPEQWKSHRSYSCQVTHEGSTVEKTVAPTECS
notes: Human IgG1 bispecific made by controlled Fab-arm exchange of IgG1-FAPα-FERL and IgG1-DR4-FERR; monovalent for FAPα and for DR4; also called GEN1057
- Kd (human DR4HsECD-FcHisCtag): 0.39 nM
- koff (human DR4HsECD-FcHisCtag): 0.00012 s⁻¹
- kon (human DR4HsECD-FcHisCtag): 320000 M⁻¹ s⁻¹
- EC50 [1]: 0.5 µg/mL
- EC50 [2]: 0.159 µg/mL
